Values quoted from earlier work, collected in article PMC6143783.

Columns and labels:
[1] = target: GABAA receptor α1 TM3-TM4 loop (Homo sapiens) (UniProt P14867); experiment: ITC
[2] = target: GABAA receptor α3 TM3-TM4 loop (Homo sapiens) (UniProt P34903); experiment: ITC
Sequence of GABAA receptor α3 TM3-TM4 loop (Homo sapiens) (P34903 359-457): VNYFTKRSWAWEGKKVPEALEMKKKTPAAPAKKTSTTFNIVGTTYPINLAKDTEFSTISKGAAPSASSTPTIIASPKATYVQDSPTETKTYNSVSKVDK

Sequence of gephyrin (Q03555 whole entry): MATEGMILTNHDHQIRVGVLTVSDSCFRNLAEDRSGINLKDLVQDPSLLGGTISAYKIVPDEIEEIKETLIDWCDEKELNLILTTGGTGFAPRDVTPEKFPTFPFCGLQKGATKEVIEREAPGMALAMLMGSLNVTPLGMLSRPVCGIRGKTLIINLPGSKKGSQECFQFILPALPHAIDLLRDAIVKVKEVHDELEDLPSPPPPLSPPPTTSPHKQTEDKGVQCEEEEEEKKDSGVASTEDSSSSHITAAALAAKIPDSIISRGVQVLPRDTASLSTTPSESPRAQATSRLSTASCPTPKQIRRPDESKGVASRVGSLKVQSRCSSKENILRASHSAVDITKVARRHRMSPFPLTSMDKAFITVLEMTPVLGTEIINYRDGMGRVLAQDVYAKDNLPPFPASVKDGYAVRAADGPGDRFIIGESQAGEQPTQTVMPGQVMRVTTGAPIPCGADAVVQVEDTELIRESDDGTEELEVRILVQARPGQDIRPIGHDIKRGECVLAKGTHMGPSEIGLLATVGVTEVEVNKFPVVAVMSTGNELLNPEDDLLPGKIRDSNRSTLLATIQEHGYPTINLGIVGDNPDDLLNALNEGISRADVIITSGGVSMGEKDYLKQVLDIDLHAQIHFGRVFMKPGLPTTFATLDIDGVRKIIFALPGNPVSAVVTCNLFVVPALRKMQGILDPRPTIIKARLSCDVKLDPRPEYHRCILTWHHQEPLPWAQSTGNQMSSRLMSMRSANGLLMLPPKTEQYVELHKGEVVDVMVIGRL
Sequence of GABAA receptor α1 TM3-TM4 loop (Homo sapiens) (P14867 334-420): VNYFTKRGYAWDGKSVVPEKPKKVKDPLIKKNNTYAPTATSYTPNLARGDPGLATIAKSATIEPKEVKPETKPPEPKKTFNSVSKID

Kd [1]: 17 µM | Kd [2]: 5.3 µM
Substance: gephyrin (from UniProt Q03555)
